One experiment addresses T1, Boi1 SH3 (BOI1_YEAST), P38041.
T1 chain: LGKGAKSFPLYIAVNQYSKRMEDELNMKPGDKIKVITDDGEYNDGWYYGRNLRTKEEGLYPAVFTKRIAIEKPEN
As to the kind of experiment: SPOT array.
MRRSKDAPIEPPKY [YOR346W 669-682] returned a normalised SPOT signal, Boehringer light units (BLU); mean over the file's lines of this peptide of 555.
Still for that read-out and setting: the figure for MQSKKEDPNRPKNL [YMR241W 242-255] is 898; for MLFMKGSPSEPKSG [YDR098C 199-212] it is 30.9; for MLNSKHYPYIPVAN [YBR096W 107-120] it is 57.3.
On the same count and under the same terms, under MKPQKIAPKFPGTV [YDR091C 417-430] stands 1110; under MPNLKRLPIPPLQD [YAR035W 1-14], 80.9.

The next experiment concerns the target T2, Yfr024 SH3 (LSB3_YEAST), P43603.
T2 chain: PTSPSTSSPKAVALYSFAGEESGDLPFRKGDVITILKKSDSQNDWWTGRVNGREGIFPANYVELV
Description: SPOT array.
The molecule MRRSKDAPIEPPKY [YOR346W 669-682] returned a normalised SPOT signal, Boehringer light units (BLU); mean over the file's lines of this peptide of 2300.
Turning to MQSKKEDPNRPKNL [YMR241W 242-255], the normalised SPOT signal, Boehringer light units (BLU); mean over the file's lines of this peptide was determined as 716.
Consider MLFMKGSPSEPKSG [YDR098C 199-212], for which the normalised SPOT signal, Boehringer light units (BLU); mean over the file's lines of this peptide was found to be 1090.
Molecule MLNSKHYPYIPVAN [YBR096W 107-120] showed a normalised SPOT signal, Boehringer light units (BLU); mean over the file's lines of this peptide of 595.
On the same count and under the same terms, under MKPQKIAPKFPGTV [YDR091C 417-430] stands 394; under MPNLKRLPIPPLQD [YAR035W 1-14], 489.

A further experiment deals with T3, Yhr016c SH3 (YSC84_YEAST), P32793.
T3 chain: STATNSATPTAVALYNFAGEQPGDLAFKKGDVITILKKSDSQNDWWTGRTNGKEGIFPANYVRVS
As to the kind of experiment: SPOT array.
In the case of MRRSKDAPIEPPKY [YOR346W 669-682], the normalised SPOT signal, Boehringer light units (BLU); mean over the file's lines of this peptide was 1050.
The same measure, in the same setting: the figure for MQSKKEDPNRPKNL [YMR241W 242-255] is 126; for MLFMKGSPSEPKSG [YDR098C 199-212] it is 262; for MLNSKHYPYIPVAN [YBR096W 107-120] it is 128.
On the same count and under the same terms, under MKPQKIAPKFPGTV [YDR091C 417-430] stands 40.5; under MPNLKRLPIPPLQD [YAR035W 1-14], 83.4.

In a further experiment the target is T4, Myo5 SH3 (MYO5_YEAST), Q04439.
T4 chain: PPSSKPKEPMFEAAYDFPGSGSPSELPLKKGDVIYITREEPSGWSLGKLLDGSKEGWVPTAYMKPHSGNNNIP
Description: SPOT array.
For MRRSKDAPIEPPKY [YOR346W 669-682], the normalised SPOT signal, Boehringer light units (BLU); mean over the file's lines of this peptide came out at 155.
Still for that read-out and setting: under MQSKKEDPNRPKNL [YMR241W 242-255] stands 154; under MLFMKGSPSEPKSG [YDR098C 199-212], 251.
The molecule MLNSKHYPYIPVAN [YBR096W 107-120] showed a normalised SPOT signal, Boehringer light units (BLU); mean over the file's lines of this peptide of 171.
Same read-out and setting: the figure for MKPQKIAPKFPGTV [YDR091C 417-430] is 416; for MPNLKRLPIPPLQD [YAR035W 1-14] it is 307.

A further experiment has as its target T5, Rvs167 SH3 (RV167_YEAST), P39743.
T5 chain: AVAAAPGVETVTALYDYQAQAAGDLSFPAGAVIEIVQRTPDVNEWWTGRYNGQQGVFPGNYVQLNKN
Description: SPOT array.
For MRRSKDAPIEPPKY [YOR346W 669-682], the normalised SPOT signal, Boehringer light units (BLU); mean over the file's lines of this peptide was found to be 1200.
Turning to MQSKKEDPNRPKNL [YMR241W 242-255], the normalised SPOT signal, Boehringer light units (BLU); mean over the file's lines of this peptide is 153.
On the same count and under the same terms, the figure for MLFMKGSPSEPKSG [YDR098C 199-212] is 377; for MLNSKHYPYIPVAN [YBR096W 107-120] it is 368.
MKPQKIAPKFPGTV [YDR091C 417-430] returned a normalised SPOT signal, Boehringer light units (BLU); mean over the file's lines of this peptide of 137.
The molecule MPNLKRLPIPPLQD [YAR035W 1-14] gave a normalised SPOT signal, Boehringer light units (BLU); mean over the file's lines of this peptide of 65.7.

The target of a further experiment is Sho1 SH3 (SHO1_YEAST), P40073. Description: SPOT array.
Sequence of Sho1 SH3 (SHO1_YEAST), P40073 (P40073 295-366): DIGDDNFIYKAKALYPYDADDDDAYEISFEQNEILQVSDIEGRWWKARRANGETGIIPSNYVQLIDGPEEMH
Molecule MRRSKDAPIEPPKY [YOR346W 669-682] came in with a normalised SPOT signal, Boehringer light units (BLU); mean over the file's lines of this peptide of 149.
For the molecule MQSKKEDPNRPKNL [YMR241W 242-255], the normalised SPOT signal, Boehringer light units (BLU); mean over the file's lines of this peptide was 44.8.
The molecule MLFMKGSPSEPKSG [YDR098C 199-212] had a normalised SPOT signal, Boehringer light units (BLU); mean over the file's lines of this peptide of 59.6.
MLNSKHYPYIPVAN [YBR096W 107-120] gave a normalised SPOT signal, Boehringer light units (BLU); mean over the file's lines of this peptide of 35.
Still for that read-out and setting: under MKPQKIAPKFPGTV [YDR091C 417-430] stands 142; under MPNLKRLPIPPLQD [YAR035W 1-14], 24500.

Another experiment deals with T6, Boi2 SH3 (BOI2_YEAST), P39969.
T6 chain: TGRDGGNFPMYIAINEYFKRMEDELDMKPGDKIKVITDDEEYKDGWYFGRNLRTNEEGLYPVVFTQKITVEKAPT
As to the kind of experiment: SPOT array.
Regarding MRRSKDAPIEPPKY [YOR346W 669-682], the normalised SPOT signal, Boehringer light units (BLU); mean over the file's lines of this peptide stood at 688.
MQSKKEDPNRPKNL [YMR241W 242-255] returned a normalised SPOT signal, Boehringer light units (BLU); mean over the file's lines of this peptide of 50.2.
Regarding MLFMKGSPSEPKSG [YDR098C 199-212], the normalised SPOT signal, Boehringer light units (BLU); mean over the file's lines of this peptide was 128.
On to MLNSKHYPYIPVAN [YBR096W 107-120], for which the normalised SPOT signal, Boehringer light units (BLU); mean over the file's lines of this peptide is 50.
On the same count and under the same terms, the figure for MKPQKIAPKFPGTV [YDR091C 417-430] is 31.6; for MPNLKRLPIPPLQD [YAR035W 1-14] it is 23.

These data come from paper PMC314469, “Protein Interaction Networks by Proteome Peptide Scanning” (PLoS Biology, 2004).
